Patent publication US10925969B2, “Anti-BCMA polypeptides and proteins” (priority 2015, dated 2021)

Tests used:
H929 cells [1] = assay: In vitro sensitivity to abraxane and bortezumib; format: cell-based; conditions: Homo sapiens, NCI-H929
Protocol: The sensitivity of H929 and U266B cells to abraxane and bortezumib (BTZ) was measured in vitro.

H929 = assay: WST assay of immunotoxin activity; format: cell-based
Protocol: (§1) The activity of the anti-BCMA immunotoxins against BCMA-expressing cell lines and cells from four multiple myeloma patients was tested by WST assay.

HUT-102 = assay: WST assay of immunotoxin activity; format: cell-based
Protocol: as §1

JJN-3 = assay: WST assay of immunotoxin activity; format: cell-based
Protocol: as §1

Jeko-1 = assay: WST assay of immunotoxin activity; format: cell-based
Protocol: as §1

KMS-18 = assay: WST assay of immunotoxin activity; format: cell-based
Protocol: as §1

LP-1 = assay: WST assay of immunotoxin activity; format: cell-based
Protocol: as §1

RPMI-8226 = assay: WST assay of immunotoxin activity; format: cell-based
Protocol: as §1

U266B = assay: WST assay of immunotoxin activity; format: cell-based
Protocol: as §1

MM-1 cells from patient = assay: WST assay, cells from multiple myeloma patient; format: cell-based, human; conditions: cells from patient MM-1
Protocol: as §1

MM-2 cells from patient = assay: WST assay, cells from multiple myeloma patient; format: cell-based, human; conditions: cells from patient MM-2
Protocol: as §1

MM-3 cells from patient = assay: WST assay, cells from multiple myeloma patient; format: cell-based, human; conditions: cells from patient MM-3
Protocol: as §1

MM-4 cells from patient = assay: WST assay, cells from multiple myeloma patient; format: cell-based, human; conditions: cells from patient MM-4
Protocol: as §1

BCMA-positive H929 cells = assay: Cell killing at fixed dose, trypan blue staining after timed exposure; format: cell-based; conditions: H929, 100 ng/ml
Protocol: Cell killing activity was measured by trypan blue staining of cells taken at various time points (days) after exposure to the immunotoxin.

H929 xenograft tumors = assay: Antitumor activity in mice with H929 xenograft tumors; format: in vivo; conditions: 1.5 mg/kg QODX5, SCID mice
Protocol: To test the in vivo efficacy of LMB38 and LMB70, tumors were grown in SCID mice using the most sensitive cell line H929. Based on the previous toxicity data, 1.5 mg/kg QODX5 doses were used on 5 mice in each group. […] However, the tumors grew back once the treatment was finished.

H929 cells [2] = assay: WST-8 assay of AF647-labeled and unlabeled LMB70; format: cell-based; conditions: in ng/mL
Protocol: (§2) LMB70 was labeled with AF647 for measurement of uptake in vivo. LMB70 was labeled twice with AF647 using an AF647 labeling kit (Life Technologies). Labeling efficacy and activity were measured by WST-8 assay and affinity measurement.

BCMA = biological target: T1, BCMA (Homo sapiens, UniProt Q02223); assay: Affinity measurement of AF647-labeled and unlabeled LMB70; format: binding; conditions: after the first labeling
T1 sequence (Q02223 1-184): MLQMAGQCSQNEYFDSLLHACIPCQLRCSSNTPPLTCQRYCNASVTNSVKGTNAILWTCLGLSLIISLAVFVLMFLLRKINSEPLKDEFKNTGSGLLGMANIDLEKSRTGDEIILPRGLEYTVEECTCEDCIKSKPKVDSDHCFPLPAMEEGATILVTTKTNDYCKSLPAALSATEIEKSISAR
Protocol: as §2

H929 cells [3] = assay: Cell viability by flow cytometry (Annexin V/7AAD staining) after various exposure durations; format: cell-based; conditions: viability after 3 days
Protocol: H929 cells were exposed to LMB70 for various durations. Cell viability was analyzed after 3 days by flow cytometry (Annexin V/7AAD staining).
H929 cells were exposed to 2 ng/ml LMB70 for various lengths of time from 10 minutes up to 72 hours. Cell viability was analyzed after 3 days by flow cytometry (Annexin V/7AAD staining).

H929 cells [4] = assay: Cell viability by trypan blue staining after 20 minute exposure; format: cell-based; conditions: 100 ng/ml for 20 minutes
Protocol: H929 cells were exposed to 100 ng/ml LMB70 for 20 minutes. Cell viability was analyzed with trypan blue staining.

H929 cells [5] = assay: Cell viability and cell density at varying LMB70 concentrations; format: cell-based; conditions: 2 hours or 6 hours exposure
Protocol: H929 cells were exposed to 2, 10, and 100 ng/ml LMB70 for 2 hours or 6 hours. Cell viability and cell density were analyzed.

CC(C)C[C@H](NC(=O)[C@H](Cc1ccccc1)NC(=O)c1cnccn1)B(O)O [BTZ, bortezomib]
IC50 (H929 cells [1]): 4 nM

B1: LMB70: anti-BCMA immunotoxin BM306-Fab-LR-GGS (conjugate)
VH: EVQLQQSGPELVKPGASVKISCKTSGYTFTEYTINWVKQSHGKSLEWIGDIYPDNYNIRYNQKFKGKATLTVDKSSSTAYMELRSLSSEDSAIYYCANHDFFVFWGQGTLVTVSA
VL: DIQMTQATSSLSASLGDRVTINCRTSQDISNHLNWYQQKPDGTVKLLIYYTSRLQSGVPSRFSGSGSGTDYSLTISNLEQEDIGTYFCHQGNTLPPTFGGGTKLEIK
modifications: left off: another chain or arm of the molecule; a dimerising Fc or GST; small tags and cut ends
notes: anti-BCMA immunotoxin BM306-Fab-LR-GGS
IC50 (H929): 0.0011 µg/mL
IC50 (HUT-102): >0.1 µg/mL
IC50 (JJN-3): 0.004 µg/mL
IC50 (Jeko-1): >0.1 µg/mL
IC50 (KMS-18): 0.065 µg/mL
IC50 (LP-1): 0.02 µg/mL
IC50 (RPMI-8226): 0.0051 µg/mL
IC50 (U266B): 0.005 µg/mL
IC50 (MM-1 cells from patient): 0.0004 µg/mL
IC50 (MM-2 cells from patient): 0.017 µg/mL
IC50 (MM-3 cells from patient): 0.0023 µg/mL
IC50 (MM-4 cells from patient): 0.0179 µg/mL
Percent dead (BCMA-positive H929 cells; 2 hr exposure, D-1): 43%
Percent dead (BCMA-positive H929 cells; 2 hr exposure, D-2): 88%
Percent dead (BCMA-positive H929 cells; 2 hr exposure, D-5): 100%
Percent dead (BCMA-positive H929 cells; 2 hr exposure, D-7): 100%
Percent dead (BCMA-positive H929 cells; 4 hr exposure, D-1): 44%
Percent dead (BCMA-positive H929 cells; 4 hr exposure, D-2): 89%
Percent dead (BCMA-positive H929 cells; 4 hr exposure, D-5): 100%
Percent dead (BCMA-positive H929 cells; 4 hr exposure, D-7): 100%
Percent dead (BCMA-positive H929 cells; 6 hr exposure, D-1): 42%
Percent dead (BCMA-positive H929 cells; 6 hr exposure, D-2): 88%
Percent dead (BCMA-positive H929 cells; 6 hr exposure, D-5): 100%
Percent dead (BCMA-positive H929 cells; 6 hr exposure, D-7): 100%
Percent dead (BCMA-positive H929 cells; 24 hr exposure, D-1): 51%
Percent dead (BCMA-positive H929 cells; 24 hr exposure, D-2): 95%
Percent dead (BCMA-positive H929 cells; 24 hr exposure, D-5): 100%
Percent dead (BCMA-positive H929 cells; 24 hr exposure, D-7): 100%
tumor growth compared to PBS-treated mice (H929 xenograft tumors): delayed
tumors once the treatment was finished (H929 xenograft tumors): grew back
IC50 (WST-8) (H929 cells [2]; after the first labeling): 1.532
IC50 (WST-8) (H929 cells [2]; after the second labeling): 2.758
Bmax (affinity measurement) (BCMA): 2220
cell death (H929 cells [3]; 2 ng/ml, even after 24 hours of exposure): did not die
exposure time sufficient to kill cells (H929 cells [3]; 100 ng/ml): ≤ 10 min
time after exposure at which cells started to die (H929 cells [4]): 24 h
time after which all cells were dead (H929 cells [4]): 3 days
effect on cell viability and growth (H929 cells [5]; 2 ng/ml): slight growth inhibition, but no cell killing
effect on cell viability and growth (H929 cells [5]; 10 ng/ml): not enough to kill all cells
